Assay results from PMC9114768 (Frontiers in Immunology, 2022).

T1: S1-RBD peptide 13 (SARS-CoV-2 (YP_009724390))
T1 construct: source: synthetic peptide (Leadgene Biomedical)
T1 chain: PFERDISTEIYQAGS


Assays:
Details in all cases: both partners purified
[1] = target: T2, C-terminal Fc-tagged human ACE2 recombinant protein (Homo sapiens, UniProt Q9BYF1); assay: SPR; Biacore T200; […]; mAb 1024 nM to 8 nM; 30 μL/min, 120 s association, 360 s dissociation; 25°C; 1:1 binding model
T2 construct: also called ACE2-hFc; recombinant ACE2-hFc; source: CHO cells, purified (Leadgene Biomedical Cat. No. 63333); not shown: Fc (human, hFc), C-terminal, kept
T2 sequence (Q9BYF1 18-740): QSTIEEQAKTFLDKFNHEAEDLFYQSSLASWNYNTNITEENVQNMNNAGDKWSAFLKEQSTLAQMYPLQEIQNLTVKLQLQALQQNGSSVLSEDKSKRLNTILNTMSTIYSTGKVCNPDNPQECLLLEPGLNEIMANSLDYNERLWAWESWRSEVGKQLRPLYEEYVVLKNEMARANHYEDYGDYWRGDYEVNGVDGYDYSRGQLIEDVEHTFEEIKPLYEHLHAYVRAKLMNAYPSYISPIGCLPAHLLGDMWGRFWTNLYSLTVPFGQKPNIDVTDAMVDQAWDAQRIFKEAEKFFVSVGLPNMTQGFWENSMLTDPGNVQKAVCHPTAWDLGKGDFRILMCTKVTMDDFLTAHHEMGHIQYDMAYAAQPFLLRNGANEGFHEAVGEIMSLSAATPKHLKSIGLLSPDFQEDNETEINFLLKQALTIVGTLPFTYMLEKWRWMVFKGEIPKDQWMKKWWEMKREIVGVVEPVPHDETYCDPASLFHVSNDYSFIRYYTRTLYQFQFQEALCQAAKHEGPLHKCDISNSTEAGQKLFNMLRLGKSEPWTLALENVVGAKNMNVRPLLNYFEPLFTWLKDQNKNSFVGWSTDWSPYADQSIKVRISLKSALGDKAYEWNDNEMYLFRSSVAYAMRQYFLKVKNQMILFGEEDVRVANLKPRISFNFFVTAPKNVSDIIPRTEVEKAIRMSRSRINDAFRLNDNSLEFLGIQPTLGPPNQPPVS

[2] = target: His-tagged SARS-CoV-2 S1-RBD recombinant protein, wild type (SARS-CoV-2 (YP_009724390), UniProt P0DTC2); assay: SPR; Biacore T200; […]; mAb 256 nM to 8 nM; 30 μL/min, 120 s association, 360 s dissociation; 25°C; 1:1 binding model
[3] = target: T1, S1-RBD peptide 13; assay: ELISA

Row | Binder | Kd [1] [nM] | Kd [2] [nM] | binding result [3]
1 | monoclonal antibody 127 (antibody, V domains shown) VH: QVQLQQPGAELVKPGASVKLSCKASGYTFTSYWMHWVKQRPGQGLEWIGEINPSNGRKNYNEKFKSKATLTVDKSSSTAYMQLSSLTSEDSAVYYCVRGDYGSSYYWYFDVWGAGTTVTVSS VL: not shown | 16.1 | 2.44 | binds
2 | monoclonal antibody 150 (antibody, V domains shown, also called mAb 150) VH: QVQLQQPGAELVKPGASVKLSCKASGYTFTSYWMHWVKQRPGQGLEWIGEINPSNGRKNYNEKFKSKATLTVDKSSSTAYMQLSSLTSEDSAVYYCVRGDYGSSYYWYFDVWGAGTTVTVSS VL: not shown | 2770 | 3.87 | binds
